Target: T1, Tat peptide (arginine-rich motif) (HIV-1, UniProt P04608)
T1 chain: RKKRRQRRRPPQG
Assay: in-cell NMR

GGGAGCUUGAUCCCGGAAACGGUCGAUCGCUCCC (structured_RNA) [anti-Tat RNA aptamer]
binding result: binds
